The record followed here is patent US20190134223A1 (TEMPLE UNIVERSITY OF THE COMMONWEALTH SYSTEM OF HIGHER …, published 2019).

In experiment [1] the target is T1, endogenous Gαq in the mouse heart (mouse (endogenous, in the hearts of the …, UniProt P21279 1-359)).
T1 construct: Endogenous protein in cardiac lysates, detected by western blot with anti-Gαq antibody; also called Gq; Gaq
T1 sequence (looked up): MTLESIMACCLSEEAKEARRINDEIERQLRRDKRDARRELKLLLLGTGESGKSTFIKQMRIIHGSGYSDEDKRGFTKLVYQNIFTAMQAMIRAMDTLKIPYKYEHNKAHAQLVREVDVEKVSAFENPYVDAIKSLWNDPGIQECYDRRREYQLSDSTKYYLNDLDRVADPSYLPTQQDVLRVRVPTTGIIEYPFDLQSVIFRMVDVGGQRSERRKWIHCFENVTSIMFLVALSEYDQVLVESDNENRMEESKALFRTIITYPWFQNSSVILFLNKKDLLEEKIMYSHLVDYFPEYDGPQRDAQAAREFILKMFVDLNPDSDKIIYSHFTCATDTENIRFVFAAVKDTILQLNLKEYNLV
Nature of the experiment: anti-FLAG immunoprecipitation from cardiac lysates of TgβARKnt mice 4 weeks after Sham or TAC, western blot with anti-Gαq antibody.

Experiment [2] concerns the target T2, full-length GRK2 (endogenous, mouse heart) (mouse (endogenous, in the hearts of the …, UniProt Q99MK8 1-689)).
T2 construct: GRK2 in the heart'; also called βARK1
T2 sequence (looked up): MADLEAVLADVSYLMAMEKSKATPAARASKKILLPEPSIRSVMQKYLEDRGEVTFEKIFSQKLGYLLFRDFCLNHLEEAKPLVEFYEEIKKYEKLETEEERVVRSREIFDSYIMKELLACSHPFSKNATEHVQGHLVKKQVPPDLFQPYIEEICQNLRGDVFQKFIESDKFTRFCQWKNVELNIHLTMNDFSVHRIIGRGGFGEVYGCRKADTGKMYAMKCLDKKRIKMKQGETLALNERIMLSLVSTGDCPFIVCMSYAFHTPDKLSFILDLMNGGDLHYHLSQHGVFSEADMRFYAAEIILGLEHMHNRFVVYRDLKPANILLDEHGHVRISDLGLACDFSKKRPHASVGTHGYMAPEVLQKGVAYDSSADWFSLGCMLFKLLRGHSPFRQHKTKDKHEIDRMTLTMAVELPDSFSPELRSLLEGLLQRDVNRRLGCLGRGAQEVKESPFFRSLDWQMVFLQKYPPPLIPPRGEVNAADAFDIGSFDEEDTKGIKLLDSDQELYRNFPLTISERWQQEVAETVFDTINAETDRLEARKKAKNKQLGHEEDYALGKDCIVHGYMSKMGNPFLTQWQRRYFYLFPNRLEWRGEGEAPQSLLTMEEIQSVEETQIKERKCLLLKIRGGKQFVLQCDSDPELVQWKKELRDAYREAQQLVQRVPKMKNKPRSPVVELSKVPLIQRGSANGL
The experiment in a line: anti-FLAG immunoprecipitation from cardiac lysates of TgβARKnt mice 4 weeks after Sham or TAC, western blot. Background: Immunoblotting shows a protein as a band on a membrane.

B1: flag-tagged βARKnt (bovine GRK2 residues 50-145 with a carboxy-terminal flag-tag) (peptide)
chain: RGEVTFEKIFSQKLGYLLFRDFCLKHLEEAKPLVEFYEEIKKYEKLETEEERLVCSREIFDTYIMKELLACSHPFSKSAIEHVQGHLVKKQVPPDL
notes: An initiator Met is not described; also called βARKnt peptide; βARKnt-flag; not shown: carboxy-terminal flag-tag
Turning to B1, the binding result in experiment [1] and in experiment [2] was “no binding” throughout.
